Assay in all cases: cell-based or functional assay
For experiment [1], the target named is human TNFα (soluble) (human) (UniProt P01375).
Experiment [2] addresses human non-cleavable membrane bound TNFα on CHO cells (human) (UniProt P01375).
A further experiment addresses human IL-23 (human) (UniProt Q9NPF7).

Sequence of human TNFα (soluble) (human) (P01375 77-233 limits assumed): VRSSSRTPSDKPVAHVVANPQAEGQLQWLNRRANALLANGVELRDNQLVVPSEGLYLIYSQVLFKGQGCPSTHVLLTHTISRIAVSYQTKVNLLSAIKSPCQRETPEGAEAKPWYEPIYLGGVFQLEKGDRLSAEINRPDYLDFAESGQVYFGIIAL
Sequence of human IL-23 (human) (Q9NPF7 20-189, chain 1 of 2): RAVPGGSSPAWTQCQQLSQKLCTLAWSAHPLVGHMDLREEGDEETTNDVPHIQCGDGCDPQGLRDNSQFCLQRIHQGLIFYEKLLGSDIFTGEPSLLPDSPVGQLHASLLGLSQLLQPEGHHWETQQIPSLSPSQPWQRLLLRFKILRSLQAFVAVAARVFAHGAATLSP
Sequence of human IL-23 (human) (P29460 23-328, chain 2 of 2, further chain): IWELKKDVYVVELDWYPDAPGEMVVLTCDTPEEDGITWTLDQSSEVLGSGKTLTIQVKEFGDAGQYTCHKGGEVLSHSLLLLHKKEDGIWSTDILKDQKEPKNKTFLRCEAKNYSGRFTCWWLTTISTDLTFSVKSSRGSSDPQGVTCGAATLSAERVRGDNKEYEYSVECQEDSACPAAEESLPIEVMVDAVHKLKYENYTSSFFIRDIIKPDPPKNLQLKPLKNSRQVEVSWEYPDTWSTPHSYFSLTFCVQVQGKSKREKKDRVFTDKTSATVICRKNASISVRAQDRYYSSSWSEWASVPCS
Sequence of human non-cleavable membrane bound TNFα on CHO cells (human) (P01375 whole entry): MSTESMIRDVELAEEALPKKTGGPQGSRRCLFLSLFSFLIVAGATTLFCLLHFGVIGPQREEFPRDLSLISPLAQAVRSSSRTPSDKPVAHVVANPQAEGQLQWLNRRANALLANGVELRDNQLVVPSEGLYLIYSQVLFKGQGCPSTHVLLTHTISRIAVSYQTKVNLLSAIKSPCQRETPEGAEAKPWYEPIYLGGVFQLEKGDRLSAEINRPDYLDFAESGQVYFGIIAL

In experiment [1], “Adalimumab with IgG1 isotype (parental TNFα antibody)” showed a CXCL1 Level (pg/mL) in plasma of mice challenged with human TNFα of 633 pg/mL. Moreover, the inhibition of killing of L929 cells by human non-cleavable membrane bound TNFα CHO cells (IC50, MTT assay) in experiment [2] stood at 0.581 nM.

As to human IgG1 isotype control antibody, the CXCL1 Level (pg/mL) in plasma of mice challenged with human TNFα in experiment [1] turned out to be 2420 pg/mL. Besides, in the experiment with human IL-23 (human), the mIL22 Level (pg/mL) in plasma of mice challenged with human IL-23 came to 132 pg/mL.

Source of the values: patent US20160122429A1.
